In article PMC5342555, “ATAD2 is an epigenetic reader of newly synthesized histone marks during DNA replication” (Oncotarget, 2016):

B1: ATAD2^342-1390: recombinant FLAG-tagged ATAD2 residues 342 to 1390, purified from Sf9 cells (protein)
chain: SPYCKRMNRRRHAIHSSDSTSSSSSEDEQHFERRRKRSRNRAINRCLPLNFRKDELKGIYKDRMKIGASLADVDPMQLDSSVRFDSVGGLSNHIAALKEMVVFPLLYPEVFEKFKIQPPRGCLFYGPPGTGKTLVARALANECSQGDKRVAFFMRKGADCLSKWVGESERQLRLLFDQAYQMRPSIIFFDEIDGLAPVRSSRQDQIHSSIVSTLLALMDGLDSRGEIVVIGATNRLDSIDPALRRPGRFDREFLFSLPDKEARKEILKIHTRDWNPKPLDTFLEELAENCVGYCGADIKSICAEAALCALRRRYPQIYTTSEKLQLDLSSINISAKDFEVAMQKMIPASQRAVTSPGQALSTVVKPLLQNTVDKILEALQRVFPHAEFRTNKTLDSDISCPLLESDLAYSDDDVPSVYENGLSQKSSHKAKDNFNFLHLNRNACYQPMSFRPRILIVGEPGFGQGSHLAPAVIHALEKFTVYTLDIPVLFGVSTTSPEETCAQVIREAKRTAPSIVYVPHIHVWWEIVGPTLKATFTTLLQNIPSFAPVLLLATSDKPHSALPEEVQELFIRDYGEIFNVQLPDKEERTKFFEDLILKQAAKPPISKKKAVLQALEVLPVAPPPEPRSLTAEEVKRLEEQEEDTFRELRIFLRNVTHRLAIDKRFRVFTKPVDPDEVPDYVTVIKQPMDLSSVISKIDLHKYLTVKDYLRDIDLICSNALEYNPDRDPGDRLIRHRACALRDTAYAIIKEELDEDFEQLCEEIQESRKKRGCSSSKYAPSYYHVMPKQNSTLVGDKRSDPEQNEKLKTPSTPVACSTPAQLKRKIRKKSNWYLGTIKKRRKISQAKDDSQNAIDHKIESDTEETQDTSVDHNETGNTGESSVEENEKQQNASESKLELRNNSNTCNIENELEDSRKTTACTELRDKIACNGDASSSQIIHISDENEGKEMCVLRMTRARRSQVEQQQLITVEKALAILSQPTPSLVVDHERLKNLLKTVVKKSQNYNIFQLENLYAVISQCIYRHRKDHDKTSLIQKMEQEVENFSCSR
B2: BD mut: TagGFP-tagged BD mutant ATAD2 (V1013A, Y1021A, Y1063A, I1074A) expressed in MCF7 cells (protein, UniProt Q6PL18 1-1390, looked up, variant V1013A Y1021A Y1063A I1074A)
ATPase family AAA …: MVVLRSSLELHNHSAASATGSLDLSSDFLSLEHIGRRRLRSAGAAQKKPAATTAKAGDGSSVKEVETYHRTRALRSLRKDAQNSSDSSFEKNVEITEQLANGRHFTRQLARQQADKKKEEHREDKVIPVTRSLRARNIVQSTEHLHEDNGDVEVRRSCRIRSRYSGVNQSMLFDKLITNTAEAVLQKMDDMKKMRRQRMRELEDLGVFNETEESNLNMYTRGKQKDIQRTDEETTDNQEGSVESSEEGEDQEHEDDGEDEDDEDDDDDDDDDDDDDDEDDEDEEDGEEENQKRYYLRQRKATVYYQAPLEKPRHQRKPNIFYSGPASPARPRYRLSSAGPRSPYCKRMNRRRHAIHSSDSTSSSSSEDEQHFERRRKRSRNRAINRCLPLNFRKDELKGIYKDRMKIGASLADVDPMQLDSSVRFDSVGGLSNHIAALKEMVVFPLLYPEVFEKFKIQPPRGCLFYGPPGTGKTLVARALANECSQGDKRVAFFMRKGADCLSKWVGESERQLRLLFDQAYQMRPSIIFFDEIDGLAPVRSSRQDQIHSSIVSTLLALMDGLDSRGEIVVIGATNRLDSIDPALRRPGRFDREFLFSLPDKEARKEILKIHTRDWNPKPLDTFLEELAENCVGYCGADIKSICAEAALCALRRRYPQIYTTSEKLQLDLSSINISAKDFEVAMQKMIPASQRAVTSPGQALSTVVKPLLQNTVDKILEALQRVFPHAEFRTNKTLDSDISCPLLESDLAYSDDDVPSVYENGLSQKSSHKAKDNFNFLHLNRNACYQPMSFRPRILIVGEPGFGQGSHLAPAVIHALEKFTVYTLDIPVLFGVSTTSPEETCAQVIREAKRTAPSIVYVPHIHVWWEIVGPTLKATFTTLLQNIPSFAPVLLLATSDKPHSALPEEVQELFIRDYGEIFNVQLPDKEERTKFFEDLILKQAAKPPISKKKAVLQALEVLPVAPPPEPRSLTAEEVKRLEEQEEDTFRELRIFLRNVTHRLAIDKRFRVFTKPADPDEVPDAVTVIKQPMDLSSVISKIDLHKYLTVKDYLRDIDLICSNALEANPDRDPGDRLARHRACALRDTAYAIIKEELDEDFEQLCEEIQESRKKRGCSSSKYAPSYYHVMPKQNSTLVGDKRSDPEQNEKLKTPSTPVACSTPAQLKRKIRKKSNWYLGTIKKRRKISQAKDDSQNAIDHKIESDTEETQDTSVDHNETGNTGESSVEENEKQQNASESKLELRNNSNTCNIENELEDSRKTTACTELRDKIACNGDASSSQIIHISDENEGKEMCVLRMTRARRSQVEQQQLITVEKALAILSQPTPSLVVDHERLKNLLKTVVKKSQNYNIFQLENLYAVISQCIYRHRKDHDKTSLIQKMEQEVENFSCSR
modifications: TagGFP tag
notes: TagGFP-tagged BD mutant ATAD2 (V1013A, Y1021A, Y1063A, I1074A) expressed in MCF7 cells

What was measured:
[1] = tested on: HDAC1 binding to H4K5,12diac; assay: In vitro competition with HDAC1 for immobilized H4K5,12diac peptides (direct binding pull down); details: increasing amount of ATAD2^342-1390 2 h, then 0.1 μM recombinant HDAC1 2 h; 1 μM immobilized peptide
Description: H4 peptides (1-25) conjugated with Biotin was immobilized on Streptavidin-coupled Dynabeads for 2 hours at 4 °C and incubated with nuclear extract from MCF7 cells. Nuclear extract was prepared by first isolating nucleus in hypotonic buffer (10 mM Tris-HCl pH 8.5, 10 mM NaCl, 0.5 mM TCEP and 0.1 % NP-40) and disrupting nuclear envelop in high salt buffer (20 mM Tris-HCl pH 8.5, 420 mM NaCl, 0.5 mM TCEP, 0.1 % Triton X-100, 25 % Glycerol) for 2 hours at 4 °C. Soluble nuclear extract was harvested by centrifugation at 20000 g for 20 min and diluted to 1:3 in buffer without NaCl in order to achieve physiological salt concentration, 140 mM. The nuclear extract was incubated with the immobilized peptides on the Streptavidin-Dynabeads overnight at 4 °C. Next day, the beads were washed three times with washing buffer (20 mM Tris-HCl pH 8.5, 140 mM NaCl, 0.5 mM TCEP, 0.1 % Triton X-100, 25 % Glycerol) and twice with high salt buffer. Bound proteins were recovered by boiling the beads in 1X sample buffer for 5 min. at 95 °C and analyzed by SDS-PAGE and Western Blotting. For direct binding experiments 1 μM of immobilized histone peptides on Streptavidin-Dynabeads were incubated with indicated amounts of ligands for 2 hours at 4 °C. After stringent washing as described above, bound proteins were analyzed in Western Blotting.

[2] = tested on: MCF7 cells; assay: EdU incorporation (DNA replication) by flow cytometry; type: cell-based; details: MCF7 overexpressing tagGFP-tagged ATAD2, gated by tagGFP; mean ± SEM, n = 3 independent experiments
Description: informed consent was obtained (Indivumed, Hamburg, by incubating cells with primary antibodies for 1 h at Germany; Asterand, Detroit USA; Provitro Berlin, RT followed by labelling with secondary antibodies Germany) of different indications. Immunohistochemistry conjugated with Alexa488 or Alexa647 for 30 min at was performed using EnVision System-HRP (DAB) from RT in dark. For analysis of TagGFP-ATAD2 expressing Dako (K4006 and K4010). Prior to immunostaining the cells GFP was stained by GFP antibody to enhance the slides were deparaffinized and rehydrated in xylene and fluorescence signal. DNA was stained by DAPI at 1 μg/ graded ethanol to distilled water. Antigen was retrieved by ml for 10 min at RT. For EdU (5-ethynyl-2'-deoxyuridine) incubating the tissue in boiling Target Retrieval Solution labelling cells were incubated in 10 μM EdU for 2h at 37 pH 6.0 (Dako S2031) for 40 min and letting them cool °C prior to fixation and staining was carried out according […]
Peroxidase-Block for 15 min at RT the slides were washed Fluor® 647 Flow Cytometry Assay Kit, ThermoFisher). twice in washing buffer (PBS with 0.05 % Tween 20) and Cells were analyzed by flow cytometry using a BD LSR incubated with primary antibodies in Antibody-Diluent II. All imaging and quantifications were performed using […]
(Dako S2022) for 90 min at RT. […]
Immunofluorescence of cells were saved for whole cell extract and the rest was subjected for subsequent fractionation. Whole cell extract […]
and fixed in 2 % FA for 10 min at RT. […] The image series were imported in Fiji and 100 % MeOH for 10 min at – 20 °C and incubated in average fluorescence was in the bleached region (F(t)ROI), […]

[3] = tested on: MCF7 cells; assay: Fluorescence recovery after photobleaching (FRAP); type: cell-based; details: TagGFP-tagged ATAD2 in MCF7, FRAP, 20 images; mean ± SEM
Description: Immunofluorescence of cells were saved for whole cell extract and the rest was subjected for subsequent fractionation. Whole cell extract
Cells were grown on Matrigel-coated coverslips and was prepared by incubating cells in ice-cold RIPA buffer fixed in 4 % formaldehyde in PBS for 15 min at RT or in (25 mM Tris·HCl pH 7.6, 150 mM NaCl, 1 % NP-40, 1 100 % methanol for 7 min at -20 °C. After removing the % sodium deoxycholate, 0.1 % SDS) supplemented with residual FA or methanol by washing in PBS cells were protease inhibitor cocktail (Roche) for 10 min on ice and permeabilized in blocking solution (10 % goat serum sonicated at medium power, 0.5 intervals in BIORUPTOR and 0.3 % Triton X-100 in PBS) for 10 min at RT and for 3 min at 4 °C. Soluble lysate was recovered by incubated with primary antibodies in blocking solution. removing insoluble fractions after centrifugation at 20000 Following the removal of unbound antibodies by washing x g for 10 min 5 to 20 μg of lysates were used for SDS gel in PBS cells were incubated with secondary antibodies electrophoresis and Western blot. conjugated with Alexa Fluor 488, 555 or 647 (Invitrogen), washed and mounted on slides in presence of DAPI for Fluorescence recovery after photobleaching visualization of nucleus. Images were acquired using an (FRAP) inverted Zeiss LSM700 confocal microscope using a 488 nm Diode-Pumped Solid State Laser with a 63X, 1.3 N.A. FRAP experiment was performed as previously oil-immersion objective. For EdU labelling cells were described with minor modifications. […]
and fixed in 2 % FA for 10 min at RT. […] The image series were imported in Fiji and 100 % MeOH for 10 min at – 20 °C and incubated in average fluorescence was in the bleached region (F(t)ROI), stain buffer with 5 % normal goat serum for 10 min at the total cell nucleus (F(t)total) and a background (F(t)BG) RT for blocking. Then indirect staining was performed were determined. The relative fluorescence intensity

Row | Molecule | competition with HDAC1 for binding to H4K5,12diac peptides [1] | EdU incorporation (normalized to control) [2] | half recovery time (recovery t1/2) [3] [s]
1 | B1 | outcompeted | – | –
2 | B2 | – | 0.5 ± 0.10 | 7.951
